The target in series [1] is T1, IMP2 KH34 (UniProt Q9Y6M1 425-581). Description: EMSA; EMSA: 100 pM RNA, 10 mM Tris, 100 mM NaCl, 0.1 mM EDTA, 0.01 mg/mL tRNA, 50 ug/mL heparin, 0.01% IGEPAL CA630, room temperature, 3 h; pH not stated. As to conditions: protein: recombinant; tags: MBP. Background: A gel shift assay detects complexes by their altered migration in electrophoresis.
For series [2], the target named is T2, ZBP1 KH34 (UniProt Q9NZI8 405-553). The series is described as above. As to conditions: protein: recombinant; tags: MBP.
In series [3] the target is T2, ZBP1 KH34. Kind of series: EMSA; text: tight to IMP2 and not to ZBP1; EMSA: 100 pM RNA, 10 mM Tris, 100 mM NaCl, 0.1 mM EDTA, 0.01 mg/mL tRNA, 50 ug/mL heparin, 0.01% IGEPAL CA630, room temperature, 3 h; pH not stated. As to conditions: protein: recombinant; tags: MBP.
Series [4] has as its target T3, IMP2 KH34 (NMR) (UniProt Q9Y6M1 425-581). Description: NMR titration; bound by KH3, fast exchange; EMSA: 100 pM RNA, 10 mM Tris, 100 mM NaCl, 0.1 mM EDTA, 0.01 mg/mL tRNA, 50 ug/mL heparin, 0.01% IGEPAL CA630, room temperature, 3 h; pH not stated. As to conditions: protein: recombinant; tags: 6xHis.
Series [5] deals with T3, IMP2 KH34 (NMR). Kind of series: NMR titration; bound by KH4, intermediate exchange; EMSA: 100 pM RNA, 10 mM Tris, 100 mM NaCl, 0.1 mM EDTA, 0.01 mg/mL tRNA, 50 ug/mL heparin, 0.01% IGEPAL CA630, room temperature, 3 h; pH not stated. As to conditions: protein: recombinant; tags: 6xHis.
Series [6] has as its target T1, IMP2 KH34. Kind of series: EMSA; tenfold higher affinity than WT zipcode; EMSA: 100 pM RNA, 10 mM Tris, 100 mM NaCl, 0.1 mM EDTA, 0.01 mg/mL tRNA, 50 ug/mL heparin, 0.01% IGEPAL CA630, room temperature, 3 h; pH not stated. As to conditions: protein: recombinant; tags: MBP.

T2 sequence (Q9NZI8 405-553): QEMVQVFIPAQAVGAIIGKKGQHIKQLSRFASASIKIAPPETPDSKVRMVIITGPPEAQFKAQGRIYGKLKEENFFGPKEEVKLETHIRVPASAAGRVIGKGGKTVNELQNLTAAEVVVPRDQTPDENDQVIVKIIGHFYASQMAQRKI
T1 sequence (Q9Y6M1 425-581): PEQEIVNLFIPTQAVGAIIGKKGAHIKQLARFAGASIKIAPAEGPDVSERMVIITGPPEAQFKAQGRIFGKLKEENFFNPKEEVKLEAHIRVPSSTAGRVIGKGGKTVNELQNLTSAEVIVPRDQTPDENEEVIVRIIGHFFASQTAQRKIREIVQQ
T3 sequence (Q9Y6M1 425-581): as above

Take ACCGGACUGUUACCAACACCCACACCCC (ssRNA) [C28 beta-actin zipcode WT]: the Kd (as a rule, the equilibrium constant for the complex coming apart) with IMP2 KH34 [1] came to 161 ± 25 nM; in the series with ZBP1 KH34 [2], 15 ± 4.9 nM.

B1: SELEX RNA #2 (ssRNA)
RNA: GGGCAGAGCGACGCAGUUUAGCCUGUGUAUACAGCGAACCCUUAGGAUGAUCGAUAGUUGCGUGCGUCGAAA
As for B1, the binding result with IMP2 KH34 [1] was “binds”; in the series with ZBP1 KH34 [3], “no binding”.
For CCCUCACC (ssRNA) [CA element RNA (5' RE)], in the series with IMP2 KH34 (NMR) [4], the binding result is “binds”.

B2: SELEX RNA #1 WT (ssRNA)
RNA: GGGCAGAGCGACGCAGUUUAGCGGCCUCAGCGAACCCUUUGGAACACUUCUCGAUAGUUGCGUGCGUCCAAA
In the case of B2, the binding result with IMP2 KH34 [1] was “binds”; with ZBP1 KH34 [3] it was “no binding”.
Regarding UUUGGAAC (ssRNA) [GG element RNA (3' RE)], the binding result in the series with IMP2 KH34 (NMR) [5] is “binds”.
With ACCGGACUGUUACCAACACCCUCACCCC (ssRNA) [C28 A22U], the binding result with IMP2 KH34 [6] was “binds”.

(Values after article PMC6768852, “The structural basis for RNA selectivity by the IMP family of RNA-binding proteins”.)
